Data: publication PMC6390363, “Tau as a mediator of neurotoxicity associated to cerebral amyloid angiopathy” (Acta Neuropathologica Communications, 2019)

Molecular target: the molecule itself
Assay: SDS-PAGE and Western blot of the stirred peptide; ADan peptide 0.5 mg/mL in PBS without calcium and magnesium, stirred at room temperature for up to 48 h, aliquots at 2, 8, 24 and 48 h; blots with anti-ADan 1699 and the conformational anti-oligomer antibody F11G3

B1: ADan peptide (Danish amyloid) (peptide)
peptide: EASNCFAIRHFENKFAVETLICFNLFLNSQEKHY
notes: the C-terminal part differs from wild-type BRI2; also called ADan amyloid peptide; ADan recombinant peptide; source: synthetic peptide (ThermoFisher Scientific, Fmoc-based solid phase peptide synthesis, purified by HPLC)
B1: binds.
